Key:
Details in all cases: both partners purified
Ssa1 = molecular target: T1, Ssa1 (yeast (S. cerevisiae), UniProt P10591 1-642); experiment: pull-down; GST-Fes1 (wild type or mutant, or GST alone) pulled down on glutathione resin; reactions with two or all three proteins; 6 μg each of His6-Fbp1 (1.6 μM), Hsp70 (0.9 μM) and GST-Fes1 (1.09 μM), with or without ATP, ADP or AMP (2.5 mM); 50 mM Tris-HCl pH 7.5, 150 mM NaCl, 2% glycerol, 5 mM MgCl2; 30 min at 4°C; stained SDS-PAGE gels
T1 construct: Ssa1, yeast cytosolic Hsp70; non-tagged; also called Hsp70; source: E. coli Rosetta 2(DE3), purified as described [51]

Ssa2 = molecular target: T2, Ssa2 (yeast (S. cerevisiae), UniProt P10592 1-639); experiment: as above
T2 construct: Ssa2, yeast cytosolic Hsp70; non-tagged; also called Hsp70; source: E. coli Rosetta 2(DE3), purified as described [51]

His6-Fbp1^P2A,S12A,T13A = molecular target: T3, His6-Fbp1^P2A,S12A,T13A (yeast (S. cerevisiae), UniProt P09201 1-348, P2A | S12A | T13A); experiment: pull-down; His6-Fbp1 (wild type or mutant) pulled down on Talon metal affinity resin; reactions with two or all three proteins; 6 μg each of His6-Fbp1 (1.6 μM), Hsp70 (0.9 μM) and GST-Fes1 (1.09 μM), with or without ATP, ADP or AMP (2.5 mM); 50 mM Tris-HCl pH 7.5, 150 mM NaCl, 2% glycerol, 5 mM MgCl2; 30 min at 4°C; washed with 5 mM imidazole, eluted with 250 mM imidazole; stained SDS-PAGE gels, bands quantified …
T3 construct: Fbp1, yeast gluconeogenic enzyme, P2A,S12A,T13A; the initiator methionine is counted as residue 1; source: E. coli expression, purified; not shown: His6, N-terminal, kept
T3 sequence (looked up): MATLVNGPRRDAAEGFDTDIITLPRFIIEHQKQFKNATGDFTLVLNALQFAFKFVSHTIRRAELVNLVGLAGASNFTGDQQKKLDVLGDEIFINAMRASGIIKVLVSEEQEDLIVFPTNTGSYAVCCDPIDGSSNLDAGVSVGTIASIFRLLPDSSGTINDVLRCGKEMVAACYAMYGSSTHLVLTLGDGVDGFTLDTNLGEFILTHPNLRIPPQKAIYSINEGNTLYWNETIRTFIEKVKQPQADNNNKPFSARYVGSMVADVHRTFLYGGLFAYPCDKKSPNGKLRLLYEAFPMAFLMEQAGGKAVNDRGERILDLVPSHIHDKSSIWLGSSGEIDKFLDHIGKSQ

His6-Fbp1Δ2–12 = molecular target: T4, His6-Fbp1Δ2–12 (yeast (S. cerevisiae), UniProt P09201 1-348, Δ2–12); experiment: as above
T4 construct: Fbp1, yeast gluconeogenic enzyme, lacking amino acid residues 2–12; the initiator methionine is counted as residue 1; source: E. coli expression, purified; not shown: His6, N-terminal, kept
T4 sequence (looked up): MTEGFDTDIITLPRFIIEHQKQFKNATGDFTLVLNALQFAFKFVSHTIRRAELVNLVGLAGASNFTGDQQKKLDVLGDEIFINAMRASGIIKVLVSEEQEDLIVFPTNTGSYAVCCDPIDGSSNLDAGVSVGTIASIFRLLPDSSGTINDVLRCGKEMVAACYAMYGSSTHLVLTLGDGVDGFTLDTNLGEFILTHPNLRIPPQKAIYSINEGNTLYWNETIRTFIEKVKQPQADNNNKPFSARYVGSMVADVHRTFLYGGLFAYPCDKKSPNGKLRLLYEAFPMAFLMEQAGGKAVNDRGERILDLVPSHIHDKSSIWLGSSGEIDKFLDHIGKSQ

His6-Fbp1 = molecular target: T5, His6-Fbp1 (yeast (S. cerevisiae), UniProt P09201 1-348); experiment: as above
T5 construct: Fbp1, yeast gluconeogenic enzyme; the initiator methionine is present in the purified protein and is counted as residue 1; also called wild type His6-Fbp1; not shown: His6, N-terminal, kept
T5 sequence (looked up): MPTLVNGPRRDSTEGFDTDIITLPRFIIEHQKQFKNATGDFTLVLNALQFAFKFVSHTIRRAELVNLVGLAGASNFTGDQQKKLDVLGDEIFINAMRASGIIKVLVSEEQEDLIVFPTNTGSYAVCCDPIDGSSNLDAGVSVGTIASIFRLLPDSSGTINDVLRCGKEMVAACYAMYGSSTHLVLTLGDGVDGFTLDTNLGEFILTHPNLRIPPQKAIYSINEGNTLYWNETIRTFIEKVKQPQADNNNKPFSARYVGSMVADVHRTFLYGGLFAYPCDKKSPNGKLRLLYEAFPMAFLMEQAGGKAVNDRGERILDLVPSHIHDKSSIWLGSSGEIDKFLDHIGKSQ

T1 sequence (P10591 whole entry): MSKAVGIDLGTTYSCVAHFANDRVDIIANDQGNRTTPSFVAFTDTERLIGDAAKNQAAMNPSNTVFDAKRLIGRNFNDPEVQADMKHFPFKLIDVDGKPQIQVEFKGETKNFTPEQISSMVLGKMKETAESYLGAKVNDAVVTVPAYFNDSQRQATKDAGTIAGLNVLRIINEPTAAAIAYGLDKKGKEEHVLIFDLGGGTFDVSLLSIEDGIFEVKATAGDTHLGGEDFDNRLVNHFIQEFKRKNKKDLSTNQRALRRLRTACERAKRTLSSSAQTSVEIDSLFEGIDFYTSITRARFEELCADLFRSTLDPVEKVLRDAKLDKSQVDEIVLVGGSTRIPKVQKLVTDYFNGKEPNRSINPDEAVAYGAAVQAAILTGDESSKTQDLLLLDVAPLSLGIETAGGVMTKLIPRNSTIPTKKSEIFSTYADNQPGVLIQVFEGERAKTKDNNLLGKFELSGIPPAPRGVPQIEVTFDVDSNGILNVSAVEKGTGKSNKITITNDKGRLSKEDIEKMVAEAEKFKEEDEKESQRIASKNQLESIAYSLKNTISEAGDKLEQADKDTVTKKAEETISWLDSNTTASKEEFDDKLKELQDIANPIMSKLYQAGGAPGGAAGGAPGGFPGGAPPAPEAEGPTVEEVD
T2 sequence (P10592 whole entry): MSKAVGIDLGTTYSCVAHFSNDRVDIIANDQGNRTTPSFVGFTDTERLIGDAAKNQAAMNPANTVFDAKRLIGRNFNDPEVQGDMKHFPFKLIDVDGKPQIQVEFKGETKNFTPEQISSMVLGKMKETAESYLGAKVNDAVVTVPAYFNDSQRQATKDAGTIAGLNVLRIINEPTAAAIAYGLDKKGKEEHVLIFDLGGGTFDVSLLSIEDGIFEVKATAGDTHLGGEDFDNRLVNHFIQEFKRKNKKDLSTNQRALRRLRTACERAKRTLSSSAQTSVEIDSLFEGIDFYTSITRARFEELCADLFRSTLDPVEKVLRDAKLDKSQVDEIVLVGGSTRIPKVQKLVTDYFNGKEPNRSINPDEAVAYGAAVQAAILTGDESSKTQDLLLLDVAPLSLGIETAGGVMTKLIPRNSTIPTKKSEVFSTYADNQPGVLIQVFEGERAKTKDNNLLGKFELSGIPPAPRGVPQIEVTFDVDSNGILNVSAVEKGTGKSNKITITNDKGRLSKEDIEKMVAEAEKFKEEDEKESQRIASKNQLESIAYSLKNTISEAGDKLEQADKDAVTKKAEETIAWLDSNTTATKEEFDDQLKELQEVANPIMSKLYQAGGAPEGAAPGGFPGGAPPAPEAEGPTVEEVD

B1: GST-Fes1 (natural protein, yeast (S. cerevisiae), UniProt P38260 1-290, looked up)
chain: MEKLLQWSIANSQGDKEAMARAGQPDPKLLQQLFGGGGPDDPTLMKESMAVIMNPEVDLETKLVAFDNFEMLIENLDNANNIENLKLWEPLLDVLVQTKDEELRAAALSIIGTAVQNNLDSQNNFMKYDNGLRSLIEIASDKTKPLDVRTKAFYALSNLIRNHKDISEKFFKLNGLDCIAPVLSDNTAKPKLKMRAIALLTAYLSSVKIDENIISVLRKDGVIESTIECLSDESNLNIIDRVLSFLSHLISSGIKFNEQELHKLNEGYKHIEPLKDRLNEDDYLAVKYVL
notes: Fes1, yeast Hsp70 nucleotide exchange factor; also called wild type GST-Fes1; source: E. coli expression, purified as described [15]; not shown: GST, N-terminal, kept
- binding result (Ssa1): binds
- binding result (Ssa2): binds
- binding result (His6-Fbp1^P2A,S12A,T13A): binds
- binding result (His6-Fbp1Δ2–12): binds
- ratio of amounts Fes1/Ssa1 pulled down by Fbp1, no nucleotide (His6-Fbp1): 0.23
- ratio of amounts Fes1/Ssa1 pulled down by Fbp1, with ADP (His6-Fbp1): 0.5
- ratio of amounts Fes1/Ssa1 pulled down by Fbp1, with AMP (His6-Fbp1): 0.18
- ratio of amounts Fes1/Ssa1 pulled down by Fbp1, with ATP (His6-Fbp1): 0.58
- ratio of amounts Fes1/Ssa2 pulled down by Fbp1, no nucleotide (His6-Fbp1): 0.33
- ratio of amounts Fes1/Ssa2 pulled down by Fbp1, with ADP (His6-Fbp1): 0.67
- ratio of amounts Fes1/Ssa2 pulled down by Fbp1, with AMP (His6-Fbp1): 0.32
- ratio of amounts Fes1/Ssa2 pulled down by Fbp1, with ATP (His6-Fbp1): 0.79

From paper PMC6615629, “Hsp70-nucleotide exchange factor (NEF) Fes1 has non-NEF roles in degradation of gluconeogenic enzymes and cell wall integrity” (PLoS Genetics, 2019)
